Square brackets hold non-standard residues; d marks the D form. Ends that are not written are not given here. fluorescein = fluorescein (N-terminal label); NMeI = CC[C@H](C)[C@H](NC)C(=O)O; Sar = CNCC(=O)O
Experiments:
[1] = Side chain 1H-15N HSQC of histidines of Aβ42; format: physicochemical; conditions: 30 µM Aβ42, no IAPP-GI, pH 7.3, 278 K
Protocol: ^1H-^15N HSQC spectra of the side chains of histidines (H6, H13 and H14) were acquired on a Bruker AMX 600 MHz spectrometer equipped with a triple-resonance cryogenic probe. […] A 30 µM sample of Aβ42 was also measured. The INEPT transfer delay was selected as 27.8 ms, to obtain the coherence transfer from the ε1H and δ2H protons to the ε2N and δ1N through the ^2J coupling constant (Figure 1B). The carrier and SWH values were 5.00 ppm and 6010 Hz in the direct dimension, and 185.31 ppm and 9728 Hz in the indirect dimension. The experimental matrix was 2K*256 complex data points, which after apodization through a 90°-shifted squared sine bell function in both dimensions was transformed to a final matrix of 8K*512 data points.

[2] = CLEANEX-PM-FHSQC water-amide proton exchange; format: physicochemical; conditions: 30 µM Aβ42, no IAPP-GI, pH 7.3, 278 K
Protocol: In a CLEANEX-PM-FHSQC experiment, exposed parts of the backbone gain high signal intensity already at short mixing times due to efficient exchange with water, while for more protected groups the signal intensity only rises at longer mixing times.
To this end, CLEANEX-PM-FHSQC experiments were recorded on a Bruker Avance 600 MHz spectrometer equipped with a triple-resonance room temperature probe. […] The intensity of peaks as a function of mixing time was fitted to the following equation: [drawing 1] (1) where V0 is the intensity of the peak in a control FHSQC experiment, k is the normalized rate constant related to the forward exchange rate constant between water and NH protons, and R1A and R1B are apparent longitudinal relaxation rates for protein and water [32].

Aβ and α-synuclein = conditions: ref [41]; cited from earlier work
Excerpt: In agreement with their intrinsic aggregation propensities, the agg ...

[3] = molecular target: IAPP-GI (Fluos-IAPP-GI) (Homo sapiens) (UniProt P10997); assay: fluorescence titration; conditions: cited from earlier work
IAPP = conditions: ref [38]; cited from earlier work
[4] = cited from earlier work
Excerpt: Therefore, we needed to find an experimental condition under which these two peptides predominantly populate a monomeric state.

Aβ40 = Aβ40 (Homo sapiens, UniProt P05067); conditions: Fluos-IAPP-GI (1 nM) titrated with low nano- to submicromolar Aβ40; fluorescence; ref [18]; read-out: app. Kd, IAPP-GI-Aβ40 interaction; cited from earlier work
Chain of Aβ40 (P05067 672-711 limits assumed): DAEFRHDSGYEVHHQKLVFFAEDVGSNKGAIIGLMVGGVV

Chain of Amyloid beta 40 1-40 (P05067 1-40): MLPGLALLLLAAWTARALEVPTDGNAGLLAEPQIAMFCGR
Chain of IAPP-GI (Fluos-IAPP-GI) (Homo sapiens) (P10997 32-73): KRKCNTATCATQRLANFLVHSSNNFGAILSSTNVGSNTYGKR

## Aβ42: amyloid-beta peptide; 15N-uniformly labeled Aβ1-42 purchased from rPeptide
[1]
  histidine side-chain peak pattern of pure Aβ42: very similar to that of Aβ40 with IAPP-GI
[2]
  water-amide proton exchange rates of Aβ42 compared with Aβ40: the exchange rates are reduced in regions (Figure 9) that are also affected upon addition of IAPP-GI to Aβ40

## O=C(O[C@@H]1Cc2c(O)cc(O)cc2O[C@@H]1c1cc(O)c(O)c(O)c1)c1cc(O)c(O)c(O)c1 [(-)-epigallocatechin gallate]
Aβ and α-synuclein
  redirection of Aβ and α-synuclein into off-pathway oligomers: redirection of Aβ and α-synuclein into off-pathway oligomers

## Amyloid beta 40 1-40 (from UniProt P05067)
[3]
  Kd: 41.2 nM

## N-terminal part (residues 1–28): N-terminal part of Aβ (residues 1–28)
IAPP
  affinity of N-terminal part of Aβ for IAPP: low µM affinity

## human IAPP: Islet Amyloid Polypeptide, hydrophobic strongly amyloidogenic peptide produced in the pancreatic islet cells (KCNTATCATQRLANFLVHSSNNFGAILSSTNVGSNTY; not fully specified (C-terminus, bridges); cysteine pairing not given here; UniProt P10997 34-70, looked up)
[4]; neutral pH, 4°C, concentration as high as 255 µM (1 mg/mL), analytical ultracentrifugation and diffusion NMR, ref [24], [25]
  assembly state of human IAPP: kinetically stable state consisting of monomers and high molecular weight oligomers
[4]; temperatures above 20°C, ref [24]-[27]
  self-association of human IAPP: rapidly drives monomeric IAPP molecules toward oligo- and multimerization

## Fluos-IAPP-GI: N-terminal fluorescein labeled IAPP-GI (fluorescein-KCNTATCATQRLANFLVHSSNNF[Sar]A[NMeI]LSSTNVGSNTY; ends and bridges not checked)
Aβ40
  Kd: 50 nM
